Data from patent US20220098269A1 (IMMATICS BIOTECHNOLOGIES, published 2022).

target: T1, HLA-A*01:01 (human); assay: UV-ligand exchange, anti-b2m ELISA; peptide exchange yield grade
T1 construct: Peptide-receptive MHC class I monomer after UV cleavage of a UV-sensitive ligand; captured on streptavidin plates, detected with anti-b2m
From the text: (§1) Candidate peptides for T cell based therapies according to the present invention were further tested for their MHC binding capacity (affinity). The individual peptide-MHC complexes were produced by UV-ligand exchange, where a UV-sensitive peptide is cleaved upon UV-irradiation and exchanged with the peptide of interest as analyzed. Only peptide candidates that can effectively bind and stabilize the peptide-receptive MHC molecules prevent dissociation of the MHC complexes. To determine the yield of the exchange reaction, an ELISA was performed based on the detection of the light chain (β2m) of stabilized MHC complexes. The assay was performed as generally described in Rodenko et al. (Rodenko et al., 2006).
(§2) 96 well MAXISorp plates (NUNC) were coated over night with 2 μg/ml streptavidin in PBS at room temperature, washed 4× and blocked for 1h at 37° C. in 2% BSA containing blocking buffer. Refolded HLA-A*02:01/MLA-001 monomers served as standards, covering the range of 15-500 ng/ml. Peptide-MHC monomers of the UV-exchange reaction were diluted 100-fold in blocking buffer. Samples were incubated for 1 h at 37° C., washed four times, incubated with 2 μg/ml HRP conjugated anti-β2m for 1h at 37° C., washed again and detected with TMB solution that is stopped with […]. Absorption was measured at 450 nm. Candidate peptides that show a high exchange yield (preferably higher than 50%, most preferred higher than 75%) are generally preferred for a generation and production of antibodies or fragments thereof, and/or T cell receptors or fragments thereof, as they show sufficient avidity to the MHC molecules and prevent dissociation of the MHC complexes.

Binder | peptide exchange yield [%]
EVQDHSTSSY | 20 to 50
RSLDCTVKTY | 50 to 75
LTEVEKDATALY | ≥ 75
TANYDTSHY | 20 to 50
RVDDITDQF | 20 to 50
FTDTSSYEY | ≥ 75
HVKDATMGY | 50 to 75
NHITDTSLNLF | 20 to 50
PSDLSVFTSY | ≥ 75
VTETMGIDGSAY | ≥ 75
MTDVDRDGTTAY | ≥ 75
VTRDDTASY | 20 to 50
EVEGVIDGTYDY | ≥ 75
GTDQTGKGLEY | 50 to 75
RSIDVTGQGF | 20 to 50
TFVDASRTLY | ≥ 75
HVSDVTVNY | 20 to 50
LSDLTCNNY | ≥ 75
HVDNSNLNY | ≥ 75
WLDRSTILY | ≥ 75
ISDITEKNSGLY | ≥ 75

Binder | peptide exchange yield [%]
YIDDVTLI | 20 to 50
ISDGMDSSAHY | ≥ 75
ITDDTVQTY | ≥ 75
ITDTSLNLF | ≥ 75
FTDLITDESINY | ≥ 75
GTDKQDSTLRY | ≥ 75
HADLTTLTF | 20 to 50
LSDLSLADI | 20 to 50
VTQDDTGFY | ≥ 75
GQYDDSLQAY | 20 to 50
VTDVTEEHY | ≥ 75
ILPDITTTY | 20 to 50
GVDDTSLLY | ≥ 75
QVDGSLLVI | 20 to 50
LTNDQTLRL | 50 to 75
WSDWSNPAY | ≥ 75
TSDTSQYDTY | 50 to 75
PSDGSMHNY | ≥ 75
ILFSDSTRLSF | 50 to 75
YSIDVTNVM | 50 to 75

target: T2, HLA-A*24:02 (human); assay: as above
T2 construct: Peptide-receptive MHC class I monomer after UV cleavage of a UV-sensitive ligand
From the text: as §1, §2

Binder | peptide exchange yield [%]
VFHDHTYHL | ≥ 75
VFDETKNLL | 20 to 50
QAIDLSLNF | 20 to 50
FFTDKTLSF | ≥ 75
NYLLYVSDF | ≥ 75
IYLDRTLLTTI | ≥ 75
IYPDASLLIQNI | ≥ 75
VHDFTLPSW | 20 to 50
IYNFRLWDF | ≥ 75
TYLPTDASLSF | ≥ 75
QYQDTTVSF | 50 to 75
SYDETKIKF | 10 to 20
VYTDISHHF | ≥ 75
KSYHDQTISF | ≥ 75
YHDQTISF | 10 to 20
YFVDVTTRI | 50 to 75
FHYDDTAGYF | 10 to 20
IFDETGRF | 20 to 50
FFQDSTFSF | ≥ 75
FYDLSIQSF | ≥ 75
FYDNSVIIF | 20 to 50
KLTDNSNQF | 20 to 50
YWDETLKEF | 50 to 75
IYQFARLDY | 20 to 50
GYIDDVTLI | 50 to 75
